Assay results published in publication PMC3404088, “Development of a Small D-Enantiomeric Alzheimer’s Amyloid-β Binding Peptide Ligand for Future In Vivo Imaging Applications” (PLoS ONE, 2012).
Square brackets hold non-standard residues; d marks the D form. Primed or numbered codes have the meaning given here. Ends that are not written are not given here. FITC′ = fluorescein isothiocyanate (ϕ)

How the values were obtained:
Details in all cases: both partners purified
Aβ1–42 fibrils [1] = target: T1, Aβ1–42 fibrils (UniProt P05067 672-713); experiment: ELISA; Aβ1–42 fibrils coated on the plate (10 µg/ml, bicarbonate-carbonate buffer pH 9.6); D-compounds from 10 µg/ml, 2 h at 37°C; detected by anti-fluorescein isothiocyanate-AP, pNPP 2.5 h
T1 construct: amyloid-β peptide Aβ1–42, cut from the amyloid precursor protein (APP), in fibrillar form; Aggregated (fibrillar) state of the same peptide as m15; also called fibrillar Aß1–42; Aβ fibrils; source: bought: JPT Biotech or Bachem AG (HPLC purified peptide); fibrils formed at 37°C (7 days in PBS pH 7.4 for SPR; five days in 50 mM Tris-HCl pH 7.4 for ELISA)
T1 sequence (P05067 672-713): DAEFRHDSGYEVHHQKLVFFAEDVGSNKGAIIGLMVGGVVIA

Aβ1–42 fibrils [2] = target: T1, Aβ1–42 fibrils; experiment: SPR; Biacore 1000; Aβ1–42 fibrils (6800 RU) immobilised on a CM5 chip by amine coupling; PBS pH 7.4; analytes 50 µg/ml, 5 µl/min for 2 minutes, ambient temperature; semi-quantitative: response in % of ACI-80-Kϕ
[3] = target: T2, Aβ1–42 peptide film (mostly monomeric Aβ1–42) (UniProt P05067 672-713); experiment: ELISA; Aβ1–42 peptide film (mostly monomers) coated on the plate (10 µg/ml, bicarbonate-carbonate buffer pH 9.6); D-compounds from 10 µg/ml, 2 h at 37°C; detected by anti-fluorescein isothiocyanate-AP, pNPP 2.5 h
T2 construct: amyloid-β peptide Aβ1–42, cut from the amyloid precursor protein (APP), freshly dissolved peptide film containing mostly monomers and smaller oligomers; Same peptide as m14, not fibrillised; also called Aβ1–42 monomers; Aβ peptide film; source: bought: Bachem (lyophilized powder); HFIP film, reconstituted with 0.54% DMSO in PBS
T2 sequence (P05067 672-713): as above

Aβ1–42 fibrils [4] = target: T1, Aβ1–42 fibrils; experiment: SPR; Biacore T100, single-cycle mode, 25°C; Aβ1–42 fibrils immobilised on a CM5 chip by amine coupling; PBS pH 7.4, 30 µl/min; 100 to 62500 nM in fivefold steps, 60 s each; heterogeneous ligand model

B1: [^19F]-ACI-89-Kϕ (peptide)
peptide: [dP][dS][dH][dY][dR][dH][dI][dS][dP][dA][dQ][dK][dK](FITC′)
modifications: also: [19F]-4-fluorobenzoyl label, place not given here
notes: D-enantiomeric derivative of ACI-80 (D1): Q1P, V12K, added C-terminal lysine, fluorinated; also called D1-Q1P-V12K-K[^19F]ϕ; source: synthetic peptide, reacted with [^19F]-N-succinimidyl-4-fluorobenzoate (SFB), HPLC purified
% binding relative to ACI-80-Kϕ (Aβ1–42 fibrils [1]): 207%
binding value (ELISA, 10 ug/mL compound) (Aβ1–42 fibrils [1]): 1.86
Dissociation [%] (response 60 s after end of injection, relative to ACI-80-Kϕ) (Aβ1–42 fibrils [2]): 0%
Interaction [%] (maximal response during injection, relative to ACI-80-Kϕ) (Aβ1–42 fibrils [2]): 476%
% binding relative to ACI-80-Kϕ [3]: 243%
binding value (ELISA, 10 ug/mL compound) [3]: 1.19

B2: ACI-82-Kϕ (peptide)
peptide: [dS][dH][dY][dR][dH][dI][dS][dP][dA][dQ][dV][dK](FITC′)
notes: D-enantiomeric derivative of ACI-80 (D1): N-terminal glutamine deleted (Q1X), added C-terminal lysine; also called D1-Q1X-Kϕ; source: synthetic peptide (JPT Peptide Technologies GmbH, Berlin)
% binding relative to ACI-80-Kϕ (Aβ1–42 fibrils [1]): 142%
binding value (ELISA, 10 ug/mL compound) (Aβ1–42 fibrils [1]): 1.28
Dissociation [%] (response 60 s after end of injection, relative to ACI-80-Kϕ) (Aβ1–42 fibrils [2]): 300%
Interaction [%] (maximal response during injection, relative to ACI-80-Kϕ) (Aβ1–42 fibrils [2]): 393%
% binding relative to ACI-80-Kϕ [3]: 167%
binding value (ELISA, 10 ug/mL compound) [3]: 0.82

B3: [^19F]-ACI-88-Kϕ (peptide)
peptide: [dS][dH][dY][dR][dH][dI][dS][dP][dA][dQ][dK][dK](FITC′)
modifications: also: [19F]-4-fluorobenzoyl label, place not given here
notes: D-enantiomeric derivative of ACI-80 (D1): N-terminal glutamine deleted (Q1X), V12K, added C-terminal lysine, fluorinated; also called D1-Q1X-V12K-K[^19F]ϕ; source: synthetic peptide, reacted with [^19F]-N-succinimidyl-4-fluorobenzoate (SFB), HPLC purified
% binding relative to ACI-80-Kϕ (Aβ1–42 fibrils [1]): 196%
binding value (ELISA, 10 ug/mL compound) (Aβ1–42 fibrils [1]): 1.76
Dissociation [%] (response 60 s after end of injection, relative to ACI-80-Kϕ) (Aβ1–42 fibrils [2]): 1230%
Interaction [%] (maximal response during injection, relative to ACI-80-Kϕ) (Aβ1–42 fibrils [2]): 294%
% binding relative to ACI-80-Kϕ [3]: 214%
binding value (ELISA, 10 ug/mL compound) [3]: 1.05

B4: ACI-88-Kϕ (peptide)
peptide: [dS][dH][dY][dR][dH][dI][dS][dP][dA][dQ][dK][dK](FITC′)
notes: D-enantiomeric derivative of ACI-80 (D1): N-terminal glutamine deleted (Q1X), V12K, added C-terminal lysine; also called D1-Q1X-V12K-Kϕ; source: synthetic peptide (JPT Peptide Technologies GmbH, Berlin)
% binding relative to ACI-80-Kϕ (Aβ1–42 fibrils [1]): 198%
binding value (ELISA, 10 ug/mL compound) (Aβ1–42 fibrils [1]): 1.78
K D1 (heterogeneous ligand model, site 1) (Aβ1–42 fibrils [4]): 4.22e-07
K D2 (heterogeneous ligand model, site 2) (Aβ1–42 fibrils [4]): 5.95e-05
k off1 (heterogeneous ligand model, site 1) (Aβ1–42 fibrils [4]): 0.00722
k off2 (heterogeneous ligand model, site 2) (Aβ1–42 fibrils [4]): 0.0553
k on1 (heterogeneous ligand model, site 1) (Aβ1–42 fibrils [4]): 17100
k on2 (heterogeneous ligand model, site 2) (Aβ1–42 fibrils [4]): 930
Dissociation [%] (response 60 s after end of injection, relative to ACI-80-Kϕ) (Aβ1–42 fibrils [2]): 667%
Interaction [%] (maximal response during injection, relative to ACI-80-Kϕ) (Aβ1–42 fibrils [2]): 365%
% binding relative to ACI-80-Kϕ [3]: 263%
binding value (ELISA, 10 ug/mL compound) [3]: 1.29

B5: ACI-85-Kϕ (peptide)
peptide: [dS][dF][dY][dR][dH][dI][dS][dP][dA][dQ][dV][dK](FITC′)
notes: D-enantiomeric derivative of ACI-80 (D1): N-terminal glutamine deleted (Q1X), H3F, added C-terminal lysine; also called D1-Q1X-H3F-Kϕ; source: synthetic peptide (JPT Peptide Technologies GmbH, Berlin)
% binding relative to ACI-80-Kϕ (Aβ1–42 fibrils [1]): 111%
binding value (ELISA, 10 ug/mL compound) (Aβ1–42 fibrils [1]): 1
Dissociation [%] (response 60 s after end of injection, relative to ACI-80-Kϕ) (Aβ1–42 fibrils [2]): 40%
Interaction [%] (maximal response during injection, relative to ACI-80-Kϕ) (Aβ1–42 fibrils [2]): 229%
% binding relative to ACI-80-Kϕ [3]: 129%
binding value (ELISA, 10 ug/mL compound) [3]: 0.63

B6: ACI-89-Kϕ (peptide)
peptide: [dP][dS][dH][dY][dR][dH][dI][dS][dP][dA][dQ][dK][dK](FITC′)
notes: D-enantiomeric derivative of ACI-80 (D1): Q1P, V12K, added C-terminal lysine; also called D1-Q1P-V12K-Kϕ; source: synthetic peptide (JPT Peptide Technologies GmbH, Berlin)
% binding relative to ACI-80-Kϕ (Aβ1–42 fibrils [1]): 165%
binding value (ELISA, 10 ug/mL compound) (Aβ1–42 fibrils [1]): 1.49
K D1 (heterogeneous ligand model, site 1) (Aβ1–42 fibrils [4]): 8e-06
K D2 (heterogeneous ligand model, site 2) (Aβ1–42 fibrils [4]): 3.53e-06
k off1 (heterogeneous ligand model, site 1) (Aβ1–42 fibrils [4]): 0.162
k off2 (heterogeneous ligand model, site 2) (Aβ1–42 fibrils [4]): 0.0118
k on1 (heterogeneous ligand model, site 1) (Aβ1–42 fibrils [4]): 20300
k on2 (heterogeneous ligand model, site 2) (Aβ1–42 fibrils [4]): 3340
Dissociation [%] (response 60 s after end of injection, relative to ACI-80-Kϕ) (Aβ1–42 fibrils [2]): 533%
Interaction [%] (maximal response during injection, relative to ACI-80-Kϕ) (Aβ1–42 fibrils [2]): 518%
% binding relative to ACI-80-Kϕ [3]: 216%
binding value (ELISA, 10 ug/mL compound) [3]: 1.06

B7: ACI-87-Kϕ (peptide)
peptide: [dQ][dS][dH][dY][dR][dH][dI][dS][dP][dA][dQ][dK][dK](FITC′)
notes: D-enantiomeric derivative of ACI-80 (D1): V12K, added C-terminal lysine; also called D1-V12K-Kϕ; source: synthetic peptide (JPT Peptide Technologies GmbH, Berlin)
% binding relative to ACI-80-Kϕ (Aβ1–42 fibrils [1]): 103%
binding value (ELISA, 10 ug/mL compound) (Aβ1–42 fibrils [1]): 0.93
K D1 (heterogeneous ligand model, site 1) (Aβ1–42 fibrils [4]): 8.93e-06
K D2 (heterogeneous ligand model, site 2) (Aβ1–42 fibrils [4]): 2.59e-05
k off1 (heterogeneous ligand model, site 1) (Aβ1–42 fibrils [4]): 0.00184
k off2 (heterogeneous ligand model, site 2) (Aβ1–42 fibrils [4]): 0.0407
k on1 (heterogeneous ligand model, site 1) (Aβ1–42 fibrils [4]): 206
k on2 (heterogeneous ligand model, site 2) (Aβ1–42 fibrils [4]): 1570
Dissociation [%] (response 60 s after end of injection, relative to ACI-80-Kϕ) (Aβ1–42 fibrils [2]): 443%
Interaction [%] (maximal response during injection, relative to ACI-80-Kϕ) (Aβ1–42 fibrils [2]): 324%
% binding relative to ACI-80-Kϕ [3]: 122%
binding value (ELISA, 10 ug/mL compound) [3]: 0.79

B8: [^19F]-ACI-87-Kϕ (peptide)
peptide: [dQ][dS][dH][dY][dR][dH][dI][dS][dP][dA][dQ][dK][dK](FITC′)
modifications: also: [19F]-4-fluorobenzoyl label, place not given here
notes: D-enantiomeric derivative of ACI-80 (D1): V12K, added C-terminal lysine, fluorinated; The text says V12K was made to enable fluorination; also called D1-V12K-K[^19F]ϕ; source: synthetic peptide, reacted with [^19F]-N-succinimidyl-4-fluorobenzoate (SFB), HPLC purified
% binding relative to ACI-80-Kϕ (Aβ1–42 fibrils [1]): 140%
binding value (ELISA, 10 ug/mL compound) (Aβ1–42 fibrils [1]): 1.26
Dissociation [%] (response 60 s after end of injection, relative to ACI-80-Kϕ) (Aβ1–42 fibrils [2]): 67%
Interaction [%] (maximal response during injection, relative to ACI-80-Kϕ) (Aβ1–42 fibrils [2]): 153%
% binding relative to ACI-80-Kϕ [3]: 176%
binding value (ELISA, 10 ug/mL compound) [3]: 0.86

B9: ACI-80-Kϕ (peptide)
peptide: [dQ][dS][dH][dY][dR][dH][dI][dS][dP][dA][dQ][dV][dK](FITC′)
notes: D-enantiomeric peptide ACI-80 (D1), selected by mirror image phage display on aggregated Aβ1–42, with an added C-terminal lysine; also called D1-Kϕ; source: synthetic peptide (JPT Peptide Technologies GmbH, Berlin)
% binding relative to ACI-80-Kϕ (Aβ1–42 fibrils [1]): 100%
binding value (ELISA, 10 ug/mL compound) (Aβ1–42 fibrils [1]): 0.9
K D1 (heterogeneous ligand model, site 1) (Aβ1–42 fibrils [4]): 5.38e-05
K D2 (heterogeneous ligand model, site 2) (Aβ1–42 fibrils [4]): 0.000115
k off1 (heterogeneous ligand model, site 1) (Aβ1–42 fibrils [4]): 0.0252
k off2 (heterogeneous ligand model, site 2) (Aβ1–42 fibrils [4]): 1.58
k on1 (heterogeneous ligand model, site 1) (Aβ1–42 fibrils [4]): 469
k on2 (heterogeneous ligand model, site 2) (Aβ1–42 fibrils [4]): 13700
% binding relative to ACI-80-Kϕ [3]: 100%
binding value (ELISA, 10 ug/mL compound) [3]: 0.49

B10: ACI-83-Kϕ (peptide)
peptide: [dP][dS][dH][dY][dR][dH][dI][dS][dP][dA][dQ][dV][dK](FITC′)
notes: D-enantiomeric derivative of ACI-80 (D1): Q1P, added C-terminal lysine; also called D1-Q1P-Kϕ; source: synthetic peptide (JPT Peptide Technologies GmbH, Berlin)
% binding relative to ACI-80-Kϕ (Aβ1–42 fibrils [1]): 167%
binding value (ELISA, 10 ug/mL compound) (Aβ1–42 fibrils [1]): 1.5
Dissociation [%] (response 60 s after end of injection, relative to ACI-80-Kϕ) (Aβ1–42 fibrils [2]): 200%
Interaction [%] (maximal response during injection, relative to ACI-80-Kϕ) (Aβ1–42 fibrils [2]): 600%
% binding relative to ACI-80-Kϕ [3]: 214%
binding value (ELISA, 10 ug/mL compound) [3]: 1.05

B11: ACI-86-Kϕ (peptide)
peptide: [dP][dS][dF][dY][dR][dH][dI][dS][dP][dA][dQ][dV][dK](FITC′)
notes: D-enantiomeric derivative of ACI-80 (D1): Q1P, H3F, added C-terminal lysine; also called D1-Q1P-H3F-Kϕ; source: synthetic peptide (JPT Peptide Technologies GmbH, Berlin)
% binding relative to ACI-80-Kϕ (Aβ1–42 fibrils [1]): 138%
binding value (ELISA, 10 ug/mL compound) (Aβ1–42 fibrils [1]): 1.24
Dissociation [%] (response 60 s after end of injection, relative to ACI-80-Kϕ) (Aβ1–42 fibrils [2]): 40%
Interaction [%] (maximal response during injection, relative to ACI-80-Kϕ) (Aβ1–42 fibrils [2]): 21%
% binding relative to ACI-80-Kϕ [3]: 163%
binding value (ELISA, 10 ug/mL compound) [3]: 0.8
